Assay [1] has as its target T1, Human PD-1 expressed on CHO-K1 cells (CHO-K1/hPD-1) (human, UniProt Q15116 25-288).
T1 construct: whole, on cells; also called CHO-K1 cells overexpressing human PD-1
As to the kind of experiment: FACS, CHO-K1/hPD-1 cells. Background: Flow cytometry measures light scatter and fluorescence of single cells or particles in a stream.

The target of assay [2] is T1, Human PD-1 expressed on CHO-K1 cells …. Description: FACS, CHO-K1-hPD-1 cells. As to the method: In order to investigate the binding activity of the CD73×PD-1 bispecific antibody to human CD73 and PD-1, the binding assay at the cellular level was performed using a CHO-K1 cell strain overexpressing human CD73 or PD-1 (CHO-K1-hCD73 or CHO-K1-hPD-1). Briefly, the CHO-K1-hCD73 and CHO-K1-hPD-1 cells were digested and resuspended in an F-12K complete medium, and the cell density was adjusted to 1×10⁶ cells/mL. The cells were seeded in a 96-well V-bottom plate (Corning, #3894) at 100 μL/well, followed by the addition at 100 μL/well and centrifugation at 500 g at 4° C. for 5 min, and then the supernatant was discarded. Antibodies were 3-fold diluted to a maximum final concentration of 50 nM, and a total of 8 concentrations were set. 100 μL of the diluted antibodies was added to each well, and the cells were incubated at 4° C. for 1 h away from light. Thereafter, the cells in each well were rinsed twice with 100 μL of pre-cooled PBS, and centrifuged at 500 g at 4° C. for 5 min, and then the supernatant was discarded. Then 100 μL of a fluorescent secondary antibody (goat anti-human IgG (H+L) secondary antibody, Alexa Fluor® 488 conjugate, Invitrogen, Cat #A11013, 1:1000) was added to each well. […] Finally, the cells in each well were resuspended in 200 μL of pre-cooled PBS, and the fluorescence signal values were read using a BD FACS CANTOII.

Assay [3] concerns the target T2, Human PD-1-His protein (ACROBiosystems, # PD1-H5221) (human, UniProt Q15116 25-167).
T2 construct: Bought reagent, coated on the ELISA plate; also called human PD-1 protein; human PD-1 antigen; not shown: His tag
As to the kind of experiment: ELISA, plate-coated human PD-1-His. As to the method:
Human PD-1-His protein (ACROBiosystems, # PD1-H5221) was diluted to 2 μg/mL with PBS, added to a 96-well plate (Corning, cat#9018) at 100 μL/well, and incubated at 4° C. overnight. After the liquid was discarded, the plate was washed 3 times with PBST buffer (pH 7.4, containing 0.05% Tween-20), and 250 μL of 2% BSA blocking buffer was added. The plate was incubated at 37° C. for 1 h. The blocking buffer was discarded, and the plate was washed 3 times with PBST buffer (pH 7.4, containing 0.05% Tween-20). The test antigen-binding protein was 5-fold diluted in sequence at an initial concentration of 100 nM for a total of 8-10 concentration gradients, and added at 100 μL/well. The plate was incubated at 37° C. for 1 h. An isotype antibody was taken as a control. After the plate was washed 3 times with PBST buffer (pH 7.4, containing 0.05% Tween-20), a 4000-fold diluted goat anti-human HRP secondary antibody (Invitrogen, #A18805) was added. The plate was incubated away from light at 37° C. for 1 h. After the plate was washed 3 times with PBST buffer (pH 7.4, containing 0.05% Tween-20), TMB (Biopanda, # TMB-S-003) was added at 100 μL/well. The plate was left away from light at room temperature for about 5 min. The reactions were terminated by adding 50 μL of stop buffer (BBI life sciences, #E661006-0200) to each well, and the absorbance values at 450 nm (OD450) were measured using a microplate reader (PerkinElemer, #Enspire). The half maximal effective concentration (EC₅₀) was calculated from the measurement results.
(An ELISA detects its analyte on a solid surface through an enzyme-linked reagent.)

For assay [4], the target named is T3, Cynomolgus monkey PD-1-His protein (AcroBiosystems, # PD1-05223) (cynomolgus monkey, UniProt B0LAJ3 25-170).
T3 construct: Bought reagent, coated on the ELISA plate; also called cynomolgus monkey PD-1 protein
Description: ELISA, plate-coated cynomolgus monkey PD-1-His. As to the method:
Cynomolgus monkey PD-1-His protein (AcroBiosystems, # PD1-05223) was diluted to 2 μg/mL with PBS, added to a 96-well plate (Corning, #9018) at 100 μL/well, and incubated at 4° C. overnight. After the liquid was discarded, the plate was washed 3 times with PBST, blocked by adding 250 μL of 2% BSA, and incubated at room temperature for 1 h. The blocking buffer was discarded, and the plate was washed 3 times with PBST buffer (pH 7.4, containing 0.05% Tween-20). The test antigen-binding protein was diluted to 5 μg/mL, and added at 100 μL/well. The plate was incubated at 37° C. for 1 h. After the plate was washed 3 times with PBST buffer (pH 7.4, containing 0.05% Tween-20), a 4000-fold diluted goat anti-human HRP secondary antibody (Invitrogen, #A18805) was added. The plate was incubated at 37° C. for 1 h. After the plate was washed, TMB (Biopanda, # TMB-S-003) was added at 100 μL/well. The plate was left away from light at room temperature for 5 min. The reactions were terminated by adding 50 μL of stop buffer (BBI life sciences, #E661006-0200) to each well, and the absorbance values at 450 nm (OD450) were measured using a microplate reader (PerkinElemer, #Enspire).

This is an account of results in US20240034792A1 (HARBOUR BIOMED SHANGHAI, published 2024).

Broadly, the EC50 is the concentration at which the effect is half-maximal.

T1 sequence (Q15116 25-288): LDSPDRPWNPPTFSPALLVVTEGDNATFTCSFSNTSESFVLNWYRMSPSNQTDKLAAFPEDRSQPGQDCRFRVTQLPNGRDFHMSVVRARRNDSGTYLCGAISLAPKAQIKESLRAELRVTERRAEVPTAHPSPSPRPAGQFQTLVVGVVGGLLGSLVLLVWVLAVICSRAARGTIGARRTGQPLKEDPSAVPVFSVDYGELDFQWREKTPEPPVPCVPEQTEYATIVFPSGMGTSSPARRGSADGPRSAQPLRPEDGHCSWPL
T2 sequence (Q15116 25-167 limits assumed): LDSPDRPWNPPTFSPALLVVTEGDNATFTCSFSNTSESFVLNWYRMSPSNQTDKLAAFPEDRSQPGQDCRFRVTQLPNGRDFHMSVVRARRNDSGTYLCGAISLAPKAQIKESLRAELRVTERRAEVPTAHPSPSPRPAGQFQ
T3 sequence (B0LAJ3 entry or part of it limits assumed): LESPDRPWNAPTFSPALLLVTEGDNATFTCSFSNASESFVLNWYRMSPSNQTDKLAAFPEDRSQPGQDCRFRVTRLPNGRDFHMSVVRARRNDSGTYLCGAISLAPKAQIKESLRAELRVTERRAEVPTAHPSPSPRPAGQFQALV

B1: PR002481 (antibody, human IgG1, V domains shown)
VH: EVQLVETGGGLIQPGGSLRLSCAASGFNVSSHYMSWVRQAPGKGREWVSIIDGGGSTYYADSVKGRFTISRDNSKNRLYLQMNSLRAEDTAMYYCARATAVAEKNGYNYPFNYWGQGTLVTVSS
notes: Heavy-chain-only antibody (HCAb), human IgG1 Fc; two heavy chains, no light chain; also called R4004P556D1; anti-PD1 R4004P556D1 HCAb hG1
Take B1: the EC50 in assay [1] is 7990 pM; in assay [2], 1240 pM; in assay [3] it was 43 pM; in assay [4], 31 pM. Further, the “Maximum (MFI)” value in assay [1] stood at 2.63e+06. Besides, the “OD Maximum” value in assay [3] stood at 2.85; in assay [4], 3.06.
